We go through three molecules from article PMC5854669, “Zinc knuckle of TAF1 is a DNA binding module critical for TFIID promoter occupancy”.

The target in one data set is T1, TAF1 ZnA (Homo sapiens, UniProt P21675 1234-1371).
T1 sequence: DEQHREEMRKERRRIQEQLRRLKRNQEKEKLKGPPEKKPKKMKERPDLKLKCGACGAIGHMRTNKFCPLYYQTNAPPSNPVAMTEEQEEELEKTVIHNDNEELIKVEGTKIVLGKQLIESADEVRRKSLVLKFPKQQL
The experiment in a line: BLI; 0.2 mM dI:dC, 5 mM Mg2+; BLI: 10 mM HEPES pH 7.9, 5 mM MgCl2, 100 mM NaCl, 10% glycerol, 0.1% ovalbumin, 0.2 mM dI:dC, 30 °C; EMSA: 10 mM HEPES pH 7.9, 5 mM MgCl2, 100 mM NaCl, 10% glycerol, 20 mM tetrasodium pyrophosphate (so in the source), 0.2 mM dI:dC, 25 °C. The settings on record: protein: recombinant; EMSA/proteolysis: tag removed by TEV; label: 5'-biotin (BLI); 5'-32P (EMSA); blunt.

The next data set addresses T2, TAF1 ZnD charge mutant (Homo sapiens, UniProt P21675 1256-1303, R1295A;K1298A).
T2 chain: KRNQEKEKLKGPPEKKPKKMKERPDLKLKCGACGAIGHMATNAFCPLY
Put plainly: BLI; BLI: 10 mM HEPES pH 7.9, 5 mM MgCl2, 100 mM NaCl, 10% glycerol, 0.1% ovalbumin, 0.2 mM dI:dC, 30 °C; EMSA: 10 mM HEPES pH 7.9, 5 mM MgCl2, 100 mM NaCl, 10% glycerol, 20 mM tetrasodium pyrophosphate (so in the source), 0.2 mM dI:dC, 25 °C. The settings on record: protein: recombinant; tags: His-GB1; label: 5'-biotin (BLI); 5'-32P (EMSA); blunt.

The target in the next data set is T3, TAF1 ZnC cysteine mutant (Homo sapiens, UniProt P21675 1234-1303, C1285A;C1288A).
T3 sequence: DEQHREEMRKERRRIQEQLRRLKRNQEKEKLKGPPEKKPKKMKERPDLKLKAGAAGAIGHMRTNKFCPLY
Described as above. To be noted: protein: recombinant; tags: His-GB1; label: 5'-biotin (BLI); 5'-32P (EMSA); blunt.

Another data set addresses T4, TAF1 ZnD cysteine mutant (Homo sapiens, UniProt P21675 1256-1303, C1285A;C1288A).
T4 chain: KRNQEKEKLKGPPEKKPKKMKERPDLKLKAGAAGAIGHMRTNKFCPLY
The description is as above. The settings on record: protein: recombinant; tags: His-GB1; label: 5'-biotin (BLI); 5'-32P (EMSA); blunt.

The next data set has as its target T5, TAF1 ZnC (Homo sapiens, UniProt P21675 1234-1303).
T5 sequence: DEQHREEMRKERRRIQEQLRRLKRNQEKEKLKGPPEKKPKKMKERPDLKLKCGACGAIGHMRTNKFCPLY
Put plainly: BLI; 0.2 mM dI:dC, 5 mM Mg2+; BLI: 10 mM HEPES pH 7.9, 5 mM MgCl2, 100 mM NaCl, 10% glycerol, 0.1% ovalbumin, 0.2 mM dI:dC, 30 °C; EMSA: 10 mM HEPES pH 7.9, 5 mM MgCl2, 100 mM NaCl, 10% glycerol, 20 mM tetrasodium pyrophosphate (so in the source), 0.2 mM dI:dC, 25 °C. To be noted: protein: recombinant; tags: His-GB1; label: 5'-biotin (BLI); 5'-32P (EMSA); blunt.

Another data set has as its target T6, TAF1 ZnD (Homo sapiens, UniProt P21675 1256-1303).
T6 chain: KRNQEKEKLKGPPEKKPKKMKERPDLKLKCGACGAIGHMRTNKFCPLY
Described as above. To be noted: protein: recombinant; tags: His-GB1; label: 5'-biotin (BLI); 5'-32P (EMSA); blunt.

B1: CD1P (cyclin D1 core promoter) (dsDNA)
DNA 1: AGGGGAGTTTTGTTGAAGTTGCAAAGTCCTGGAGCCTCCAGAGGGCTGTCG
DNA 2: CGACAGCCCTCTGGAGGCTCCAGGACTTTGCAACTTCAACAAAACTCCCCT
For B1, the equilibrium dissociation constant (Kd) with TAF1 ZnA came out at 411 ± 101 nM.

B2: IMD (Inr, MTE, DPE of super core promoter) (dsDNA)
DNA 1: GTCCTCAGTCGCGATCGAACACTCGAGCCGAGCAGACGTGCCTA
DNA 2: TAGGCACGTCTGCTCGGCTCGAGTGTTCGATCGCGACTGAGGAC
B2: the binding result in the data set with TAF1 ZnD charge mutant, with TAF1 ZnC cysteine mutant and with TAF1 ZnD cysteine mutant was “no binding” throughout. Also, the dissociation constant (Kd) with TAF1 ZnC amounted to 343 ± 42 nM; with TAF1 ZnD, 503 ± 67 nM; with TAF1 ZnA, 288 ± 46 nM.

B3: Random DNA (dsDNA)
DNA 1: GAATGTCGCGAAGGCAGCGTTCGCGAAGACAGCAAAGAAG
DNA 2: CTTCTTTGCTGTCTTCGCGAACGCTGCCTTCGCGACATTC
In the case of B3, the Kd with TAF1 ZnA was determined as 1010 ± 228 nM.
